Measurements as given in the supplement of paper PMC9112550, “Optimization of the antimicrobial peptide Bac7 by deep mutational scanning” (BMC Biology, 2022).

tested on: Escherichia coli TOP10; test: shrunken log2 fold change of peptide-encoding DNA abundance (4.5 h post-induction vs induction); higher = less antimicrobial activity (less host growth inhibition); details: time post-induction: 4.5 h; library: site-saturation at positions 5, 18, 19, 20
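Note: peptides expressed intracellularly from a pBAD plasmid library in pooled LB shake-flask culture, induced with 0.3% L-arabinose, DNA abundance read by NGS, three biological replicates, DESeq2 with apeglm shrinkage.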

Sequence | shrunken log2 fold change
RRIRNRPPRLPRPRPRPSHHPRP | -0.421
RRIRIRPPRLPRPRPRPKNIPRP | -0.733
RRIRHRPPRLPRPRPRPNYSPRP | -0.915
RRIRRRPPRLPRPRPRPATEPRP | 0.421
RRIRVRPPRLPRPRPRPCLAPRP | -0.0591
RRIRGRPPRLPRPRPRPRHFPRP | 0.379
RRIRWRPPRLPRPRPRPAWKPRP | 0.143
RRIRRRPPRLPRPRPRPGWMPRP | 0.0476
RRIRDRPPRLPRPRPRPRMDPRP | -0.0354
RRIRSRPPRLPRPRPRPKSNPRP | -0.347
RRIRARPPRLPRPRPRPKPQPRP | 0.533
RRIRHRPPRLPRPRPRPNAYPRP | -0.219
RRIRQRPPRLPRPRPRPIKVPRP | 0.0441
RRIRIRPPRLPRPRPRPCVPPRP | -0.162
RRIRNRPPRLPRPRPRPHCDPRP | -0.292
RRIRLRPPRLPRPRPRPTGEPRP | 0.205
RRIRDRPPRLPRPRPRPRLGPRP | 0.829
RRIRFRPPRLPRPRPRPTQKPRP | 0.94
RRIRWRPPRLPRPRPRPSHAPRP | -0.0866
RRIRERPPRLPRPRPRPFQPPRP | -0.311
RRIRNRPPRLPRPRPRPSMWPRP | -0.0524
RRIRTRPPRLPRPRPRPSQLPRP | -0.453

Sequence | shrunken log2 fold change
RRIRSRPPRLPRPRPRPMRKPRP | 0.853
RRIRDRPPRLPRPRPRPAVSPRP | -0.000946
RRIRMRPPRLPRPRPRPNYQPRP | -0.23
RRIRQRPPRLPRPRPRPEGIPRP | 0.0201
RRIRARPPRLPRPRPRPVWVPRP | 0.321
RRIRPRPPRLPRPRPRPPLRPRP | 0.336
RRIRERPPRLPRPRPRPLVNPRP | -0.456
RRIRMRPPRLPRPRPRPCCNPRP | -0.00151
RRIRPRPPRLPRPRPRPPNGPRP | 0.593
RRIRIRPPRLPRPRPRPTRCPRP | 0.33
RRIRYRPPRLPRPRPRPWCGPRP | -0.974
RRIRHRPPRLPRPRPRPAFEPRP | -0.0402
RRIRLRPPRLPRPRPRPHESPRP | -0.0598
RRIRYRPPRLPRPRPRPESNPRP | -0.23
RRIRCRPPRLPRPRPRPFVHPRP | -0.891
RRIRARPPRLPRPRPRPHHWPRP | 0.145
RRIRIRPPRLPRPRPRPLNHPRP | -0.458
RRIRVRPPRLPRPRPRPKCLPRP | 0.127
RRIRQRPPRLPRPRPRPMEHPRP | 0.0112
RRIRKRPPRLPRPRPRPQMHPRP | 0.0713
RRIRPRPPRLPRPRPRPMRHPRP | -0.0129
RRIRDRPPRLPRPRPRPQGDPRP | 0.0878

Sequence | shrunken log2 fold change
RRIRDRPPRLPRPRPRPPWYPRP | -0.0741
RRIRWRPPRLPRPRPRPVNKPRP | -0.0372
RRIRARPPRLPRPRPRPRYIPRP | -0.0261
RRIRYRPPRLPRPRPRPYWFPRP | -0.142
RRIRFRPPRLPRPRPRPFINPRP | -0.874
RRIRIRPPRLPRPRPRPCMPPRP | -0.908
RRIRARPPRLPRPRPRPSQCPRP | -0.121
RRIRPRPPRLPRPRPRPGYTPRP | -0.0764
RRIRRRPPRLPRPRPRPMRWPRP | 0.638
RRIRMRPPRLPRPRPRPNQEPRP | -0.0314
RRIRPRPPRLPRPRPRPQKMPRP | -0.201
RRIRLRPPRLPRPRPRPDCEPRP | 0.0566
RRIRVRPPRLPRPRPRPAMPPRP | 0.0637
RRIRKRPPRLPRPRPRPDAYPRP | 1.82
RRIRERPPRLPRPRPRPWLMPRP | -0.282
RRIRDRPPRLPRPRPRPWYMPRP | -0.315
RRIRFRPPRLPRPRPRPGKKPRP | 0.0937
RRIRIRPPRLPRPRPRPANVPRP | -0.0188
RRIRLRPPRLPRPRPRPSDWPRP | -0.106
RRIRWRPPRLPRPRPRPNGHPRP | -0.0518
RRIRYRPPRLPRPRPRPVRTPRP | -0.137
RRIRVRPPRLPRPRPRPKAGPRP | 0.0641

Sequence | shrunken log2 fold change
RRIRCRPPRLPRPRPRPYQPPRP | -0.152
RRIRRRPPRLPRPRPRPACRPRP | 0.456
RRIRPRPPRLPRPRPRPDATPRP | 0.625
RRIRARPPRLPRPRPRPKPFPRP | 0.0753
RRIRWRPPRLPRPRPRPQWWPRP | 0.00856
RRIRKRPPRLPRPRPRPWQWPRP | 0.0199
RRIRIRPPRLPRPRPRPAILPRP | 0.089
RRIRMRPPRLPRPRPRPYVNPRP | -0.284
RRIRPRPPRLPRPRPRPYKHPRP | -0.777
RRIRKRPPRLPRPRPRPHFKPRP | -0.0252
RRIRQRPPRLPRPRPRPRQEPRP | 0.0978
RRIRNRPPRLPRPRPRPTKCPRP | -0.16
RRIRTRPPRLPRPRPRPCSSPRP | -0.0634
RRIRKRPPRLPRPRPRPHCSPRP | 0.063
RRIRQRPPRLPRPRPRPTGVPRP | 0.216
RRIRKRPPRLPRPRPRPCNRPRP | 0.0247
RRIRLRPPRLPRPRPRPGPMPRP | 0.255
RRIRMRPPRLPRPRPRPRGSPRP | 0.631
RRIRMRPPRLPRPRPRPICSPRP | 0.241
RRIRWRPPRLPRPRPRPCHCPRP | -0.102
RRIRSRPPRLPRPRPRPRWVPRP | 0.218
RRIRSRPPRLPRPRPRPGDLPRP | -0.091

Sequence | shrunken log2 fold change
RRIRKRPPRLPRPRPRPIYCPRP | -0.0201
RRIRCRPPRLPRPRPRPLRLPRP | 0.0282
RRIRLRPPRLPRPRPRPHLDPRP | -0.0911
RRIRPRPPRLPRPRPRPCPNPRP | -0.0908
RRIRPRPPRLPRPRPRPFRGPRP | 0.0377
RRIRTRPPRLPRPRPRPLIFPRP | -0.446
RRIRSRPPRLPRPRPRPWEKPRP | -0.01
RRIRHRPPRLPRPRPRPCPWPRP | -0.168
RRIRTRPPRLPRPRPRPKSYPRP | -0.364
RRIRGRPPRLPRPRPRPCKAPRP | 0.377
RRIRGRPPRLPRPRPRPATKPRP | 0.649
RRIRWRPPRLPRPRPRPGSFPRP | 0.0155
RRIRVRPPRLPRPRPRPQKNPRP | -0.217
RRIRERPPRLPRPRPRPRFAPRP | 0.0577
RRIRPRPPRLPRPRPRPYAWPRP | -0.152
RRIRSRPPRLPRPRPRPLGWPRP | 0.76
RRIRIRPPRLPRPRPRPIGVPRP | -0.0176
RRIRLRPPRLPRPRPRPWKGPRP | 0.0434
RRIRDRPPRLPRPRPRPICVPRP | -0.109
RRIRQRPPRLPRPRPRPFPMPRP | 0.155
RRIRLRPPRLPRPRPRPGIWPRP | 0.355
